Assay results as given in paper PMC9307952, “Lipoate protein ligase B primarily recognizes the C8-phosphopantetheine arm of its donor substrate and weakly binds the acyl carrier protein” (The Journal of Biological Chemistry, 2022).
Numbering of substitutions follows the chain as printed. Names may count otherwise.

B1: E. coli LipB (EcLipB) (Escherichia coli K-12; G72A/G73A) (protein)
chain: MYQDKILVRQLGLQPYEPISQAMHEFTDTRDDSTLDEIWLVEHYPVFTQGQAGKAEHILMPGDIPVIQSDRAAQVTYHGPGQQVMYVLLNLKRRKLGVRELVTLLEQTVVNTLAELGIEAHPRADAPGVYVGEKKICSLGLRIRRGCSFHGLALNVNMDLSPFLRINPCGYAGMEMAKISQWKPEATTNNIAPRLLENILALLNNPDFEYITA
B2: E. coli LipB (EcLipB) (Escherichia coli K-12; K135A) (protein)
chain: B1 chain with A72G, A73G, K135A
B3: E. coli LipB (EcLipB) (Escherichia coli K-12; R71A) (protein)
chain: B1 chain with R71A, A72G, A73G

Substrate: CCCCCCCC(=O)SCCNC(=O)CCNC(=O)[C@H](O)C(C)(C)COP(=O)(O)OP(=O)(O)OC[C@H]1O[C@@H](n2cnc3c(N)ncnc32)[C@H](O)[C@@H]1OP(=O)(O)O
Assay: purified protein
Conditions: 5 μM LipB, 25 μM E. coli GcvH as acceptor, 0-160 μM C8-CoA, 50 mM Tris-HCl, 200 mM NaCl, pH 8.0, 30 °C

| Protein | Km | Vmax | kcat |
| --- | --- | --- | --- |
| B1 | 6.71 ± 0.98 µM | 0.32 µmol/min | 0.001 s⁻¹ |
| B2 | 42.37 ± 4.58 µM | 0.2 µmol/min | 0.000667 s⁻¹ |
| B3 | 34.39 ± 8.8 µM | 0.26 µmol/min | 0.000833 s⁻¹ |
